Target: ThaI restriction endonuclease (Thermoplasma acidophilum strain ATCC 25905)
Test: SEC

stoichiometry N: 2
Substance: ThaI restriction endonuclease (enzyme)
